The target of assay [1] is E. fergusonii BrxB WT (Escherichia fergusonii). Kind of assay: SEC; analytical SEC of E. fergusonii BrxB alone, 10 μM in 100 μl, Superdex 75 increase 10/300 GL, 20 mM Tris HCl pH 7.9, 150 mM NaCl; monomer and dimer.
For assay [2] the target is unchanged. Kind of assay: native MS; collected BrxB SEC peaks exchanged into 10 mM ammonium bicarbonate, 0.5 mg/ml, positive ion electrospray time-of-flight MS; monomer and dimer.

Experimental findings from article PMC12205998 are described below.

Take E. fergusonii BrxB WT (natural protein): the stoichiometry N in assay [1] and in assay [2] was 2 throughout.
